# Results taken from US20090123371A1.
# Target: EphA2 receptor tyrosine kinase (human) (UniProt P29317)
# Test: cell-based or functional assay
substance,measurement,value
DT390-ephrinA1 (from UniProt P00588 33-422),"cell proliferation assay, U-251 MG GBM cells",15 nM
